Values belong to the binder of their own block, whether it stands above or below them.
What was measured:
Assay in all cases: two-hybrid library CCNG1;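 also: natural log of median RNA to DNA barcode read ratio; higher means stronger binding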
4H166-bN = molecular target: T1, 4H166-bN
T1 chain: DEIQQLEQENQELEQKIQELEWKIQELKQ

4H2143-bN = molecular target: T2, 4H2143-bN
T2 chain: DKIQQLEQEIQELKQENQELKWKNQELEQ

4H2162-bN = molecular target: T3, 4H2162-bN
T3 chain: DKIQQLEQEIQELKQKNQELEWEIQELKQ

4H2233-bN = molecular target: T4, 4H2233-bN
T4 chain: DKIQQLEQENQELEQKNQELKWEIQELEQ

4H2253-bN = molecular target: T5, 4H2253-bN
T5 chain: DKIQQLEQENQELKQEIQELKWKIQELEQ

4H235-bN = molecular target: T6, 4H235-bN
T6 chain: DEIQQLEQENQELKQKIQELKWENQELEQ

4H2444-bN = molecular target: T7, 4H2444-bN
T7 chain: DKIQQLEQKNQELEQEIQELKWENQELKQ

4H2518-bN = molecular target: T8, 4H2518-bN
T8 chain: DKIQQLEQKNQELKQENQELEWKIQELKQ

4H2585-bN = molecular target: T9, 4H2585-bN
T9 chain: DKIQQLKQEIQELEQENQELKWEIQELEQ

4H264-bN = molecular target: T10, 4H264-bN
T10 chain: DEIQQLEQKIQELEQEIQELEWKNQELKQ

4H2760-bN = molecular target: T11, 4H2760-bN
T11 chain: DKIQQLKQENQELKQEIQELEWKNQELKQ

4H2859-bN = molecular target: T12, 4H2859-bN
T12 chain: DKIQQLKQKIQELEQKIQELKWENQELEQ

4H2931-bN = molecular target: T13, 4H2931-bN
T13 chain: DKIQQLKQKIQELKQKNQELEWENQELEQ

4H3041-bN = molecular target: T14, 4H3041-bN
T14 chain: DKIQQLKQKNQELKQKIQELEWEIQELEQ

4H3297-bN = molecular target: T15, 4H3297-bN
T15 chain: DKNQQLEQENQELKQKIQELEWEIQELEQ

4H3364-bN = molecular target: T16, 4H3364-bN
T16 chain: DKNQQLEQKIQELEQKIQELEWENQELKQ

4H3381-bN = molecular target: T17, 4H3381-bN
T17 chain: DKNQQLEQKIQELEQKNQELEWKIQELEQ

4H349-bN = molecular target: T18, 4H349-bN
T18 chain: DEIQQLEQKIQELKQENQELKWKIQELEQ

4H56-bN = molecular target: T19, 4H56-bN
T19 chain: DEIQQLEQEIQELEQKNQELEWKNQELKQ

4H730-bN = molecular target: T20, 4H730-bN
T20 chain: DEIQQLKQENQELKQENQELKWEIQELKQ

4H796-bN = molecular target: T21, 4H796-bN
T21 chain: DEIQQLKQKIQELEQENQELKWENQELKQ

4H932-bN = molecular target: T22, 4H932-bN
T22 chain: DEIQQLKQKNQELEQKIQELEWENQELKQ

4H949-bN = molecular target: T23, 4H949-bN
T23 chain: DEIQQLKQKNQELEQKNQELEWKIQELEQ

4H1257-bN = molecular target: T24, 4H1257-bN
T24 chain: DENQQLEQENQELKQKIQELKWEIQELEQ

4H1446-bN = molecular target: T25, 4H1446-bN
T25 chain: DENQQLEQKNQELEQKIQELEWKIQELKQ

4H1828-bN = molecular target: T26, 4H1828-bN
T26 chain: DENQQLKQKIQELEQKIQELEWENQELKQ

4H1845-bN = molecular target: T27, 4H1845-bN
T27 chain: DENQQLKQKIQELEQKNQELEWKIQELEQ

4H2442-bN = molecular target: T28, 4H2442-bN
T28 chain: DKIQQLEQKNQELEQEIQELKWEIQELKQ

4H2576-bN = molecular target: T29, 4H2576-bN
T29 chain: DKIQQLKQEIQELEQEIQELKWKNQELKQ

4H2618-bN = molecular target: T30, 4H2618-bN
T30 chain: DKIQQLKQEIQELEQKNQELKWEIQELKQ

4H2667-bN = molecular target: T31, 4H2667-bN
T31 chain: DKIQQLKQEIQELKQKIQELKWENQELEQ

4H2729-bN = molecular target: T32, 4H2729-bN
T32 chain: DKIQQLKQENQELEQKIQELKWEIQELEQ

4H3112-bN = molecular target: T33, 4H3112-bN
T33 chain: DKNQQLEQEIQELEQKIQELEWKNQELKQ

4H3185-bN = molecular target: T34, 4H3185-bN
T34 chain: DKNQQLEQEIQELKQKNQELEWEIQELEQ

4H331-bN = molecular target: T35, 4H331-bN
T35 chain: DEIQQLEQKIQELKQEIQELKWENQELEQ

4H3354-bN = molecular target: T36, 4H3354-bN
T36 chain: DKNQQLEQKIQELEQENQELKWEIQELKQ

4H338-bN = molecular target: T37, 4H338-bN
T37 chain: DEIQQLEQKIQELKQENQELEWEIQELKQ

4H3427-bN = molecular target: T38, 4H3427-bN
T38 chain: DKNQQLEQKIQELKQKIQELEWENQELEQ

4H3782-bN = molecular target: T39, 4H3782-bN
T39 chain: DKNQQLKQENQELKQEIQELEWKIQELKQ

4H3855-bN = molecular target: T40, 4H3855-bN
T40 chain: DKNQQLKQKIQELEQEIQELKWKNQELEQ

4H4001-bN = molecular target: T41, 4H4001-bN
T41 chain: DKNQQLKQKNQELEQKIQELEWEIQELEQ

4H454-bN = molecular target: T42, 4H454-bN
T42 chain: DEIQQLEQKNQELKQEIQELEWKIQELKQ

4H568-bN = molecular target: T43, 4H568-bN
T43 chain: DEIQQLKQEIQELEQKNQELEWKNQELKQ

4H607-bN = molecular target: T44, 4H607-bN
T44 chain: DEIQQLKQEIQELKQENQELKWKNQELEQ

4H687-bN = molecular target: T45, 4H687-bN
T45 chain: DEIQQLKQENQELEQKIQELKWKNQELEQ

4H717-bN = molecular target: T46, 4H717-bN
T46 chain: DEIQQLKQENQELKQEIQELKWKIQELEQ

4H72-bN = molecular target: T47, 4H72-bN
T47 chain: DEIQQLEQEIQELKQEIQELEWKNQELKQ

4H754-bN = molecular target: T48, 4H754-bN
T48 chain: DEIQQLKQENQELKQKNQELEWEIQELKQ

4H797-bN = molecular target: T49, 4H797-bN
T49 chain: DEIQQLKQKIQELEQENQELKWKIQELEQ

4H883-bN = molecular target: T50, 4H883-bN
T50 chain: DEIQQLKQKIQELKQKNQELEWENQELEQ

4H908-bN = molecular target: T51, 4H908-bN
T51 chain: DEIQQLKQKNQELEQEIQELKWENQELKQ

4H918-bN = molecular target: T52, 4H918-bN
T52 chain: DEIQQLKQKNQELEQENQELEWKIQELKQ

4H953-bN = molecular target: T53, 4H953-bN
T53 chain: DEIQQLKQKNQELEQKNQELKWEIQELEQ

4H967-bN = molecular target: T54, 4H967-bN
T54 chain: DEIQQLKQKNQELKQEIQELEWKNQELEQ

P3A-bN = molecular target: T55, P3A-bN
T55 chain: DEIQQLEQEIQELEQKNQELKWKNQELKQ

interaction score (4H166-bN): 0.12
interaction score (4H2143-bN): 0.201
interaction score (4H2162-bN): 0.326
interaction score (4H2233-bN): 0.155
interaction score (4H2253-bN): -0.769
interaction score (4H235-bN): -0.365
interaction score (4H2444-bN): 0.231
interaction score (4H2518-bN): 1.34
interaction score (4H2585-bN): -0.823
interaction score (4H264-bN): 0.717
interaction score (4H2760-bN): 0.225
interaction score (4H2859-bN): 0.54
interaction score (4H2931-bN): -0.274
interaction score (4H3041-bN): 1.6
interaction score (4H3297-bN): 1.54
interaction score (4H3364-bN): -0.154
interaction score (4H3381-bN): 0.0552
interaction score (4H349-bN): -0.759
interaction score (4H56-bN): -0.199
interaction score (4H730-bN): -0.71
interaction score (4H796-bN): -1.95
interaction score (4H932-bN): -0.134
interaction score (4H949-bN): -0.601
Binder: DEIQQLEQENQELEQKIQELEWKIQELKQ [4H166-bN]

interaction score (4H1257-bN): -1.67
interaction score (4H1446-bN): -0.533
interaction score (4H1828-bN): -0.561
interaction score (4H1845-bN): -0.503
interaction score (4H2442-bN): -1.13
interaction score (4H2576-bN): -0.613
interaction score (4H2618-bN): -0.173
interaction score (4H2667-bN): -1.35
interaction score (4H2729-bN): -0.506
interaction score (4H3112-bN): -0.702
interaction score (4H3185-bN): -1.45
interaction score (4H331-bN): -1.48
interaction score (4H3354-bN): -1.08
interaction score (4H338-bN): -0.857
interaction score (4H3427-bN): -0.768
interaction score (4H3782-bN): 1.9
interaction score (4H3855-bN): -0.77
interaction score (4H4001-bN): -1.89
interaction score (4H454-bN): 0.889
interaction score (4H568-bN): -1.28
interaction score (4H607-bN): -0.95
interaction score (4H687-bN): -1.24
interaction score (4H717-bN): -1.05
interaction score (4H72-bN): -1.99
interaction score (4H754-bN): -1.46
interaction score (4H797-bN): -0.946
interaction score (4H883-bN): -1.31
interaction score (4H908-bN): -1.39
interaction score (4H918-bN): -1.21
interaction score (4H953-bN): -0.733
interaction score (4H967-bN): -0.47
interaction score (P3A-bN): -1.36
Binder: DENQQLEQENQELKQKIQELKWEIQELEQ [4H1257-bN]

Reference: publication PMC10397247
